Laboratory results: patent publication US12156920B2, “Double-labeled probe for molecular imaging and use thereof” (Deutsches Krebsforschungszentrum, priority 2017, dated 2024)
Like-named read-outs stand apart in the source and are kept apart here.

How the values were obtained:
[1] = system: LNCaP-tumor bearing balb/c nu/nu mice; assay: Biodistribution (organ distribution) of 68Ga-labeled compounds; type: in vivo
Procedure: (§1) The precursor peptides [1 nmol in HEPES buffer (580 mg/ml), 90 μL] were added to 40 μL [^68Ga]Ga^3+ eluate (˜40 MBq). The pH was adjusted to 3.8 using 30% NaOH and 10% NaOH, respectively. The reaction mixture was incubated at 98° C. for 10 minutes. The radiochemical yield (RCY) was determined by HPLC. For the experimental tumor models 5×10^6 cells of LNCaP (in 50% Matrigel; Becton Dickinson, Heidelberg, Germany) were subcutaneously inoculated into the right trunk of 7- to 8-week-old male BALB/c nu/nu mice (Charles River). The tumors were allowed to grow until approximately 1 cm^3 in size. The ^68Ga-labeled compounds were injected into a tail vein (1-2 MBq; 60 pmol). […] Organs of interest were dissected, blotted dry, and weighed. The radioactivity was measured using a gamma counter and calculated as % ID/g. All animal experiments complied with the current laws of the Federal Republic of Germany.

[2] = as above; type: in vivo, mice; settings: male, BALB/c nu/nu, mouse, iv, 60 pmol, total radioactivity
Procedure: as §1

PSMA+ LNCaP cells = assay: Internalization experiments (specific cell surface bound and internalized fractions); type: cell-based; settings: 68Ga-labeled compound 30 nM, 45 min
Procedure: (§2) PSMA^+ LNCaP cells (ATCC CRL-1740) were cultured in RPMI medium supplemented with 10% fetal calf serum and 2 mmol/L L-glutamine (all from PAA). Cells were grown at 37° C. in humidified air with 5% CO2 and were harvested using trypsin-ethylenediaminetetraacetic acid (trypsin-EDTA; 0.25% trypsin, 0.02% EDTA, Invitrogen).
For internalization experiments, 10^5 cells per well were seeded in poly-L-lysine coated 24-well cell culture plates 24 h before incubation. After washing, the cells were incubated with 30 nM of the radiolabeled compound for 45 min at 37° C. and at 4° C., respectively. Cellular uptake was terminated by washing 3 times with 1 mL of ice-cold PBS. To remove surface-bound radioactivity, cells were incubated twice with 0.5 mL glycine-HCl in PBS (50 mM, pH=2.8) for 5 min. The cells were washed with 1 mL of ice-cold PBS and lysed using 0.3 N NaOH (0.5 mL). The surface-bound and the internalized fractions were measured in a gamma counter. The cell uptake was calculated as percent of the initially added radioactivity bound to 10^5 cells [% ID/10^5 cells].

PSMA = biological target: T1, PSMA (Homo sapiens, UniProt Q04609); assay: Competitive cell binding assay on LNCaP cells (PSMA binding affinity); settings: competition against 0.2 nM 68Ga-labeled PSMA-10
T1 construct: endogenous in cells; host or cells: LNCaP cells (ATCC CRL-1740)
T1 sequence (Q04609 whole entry): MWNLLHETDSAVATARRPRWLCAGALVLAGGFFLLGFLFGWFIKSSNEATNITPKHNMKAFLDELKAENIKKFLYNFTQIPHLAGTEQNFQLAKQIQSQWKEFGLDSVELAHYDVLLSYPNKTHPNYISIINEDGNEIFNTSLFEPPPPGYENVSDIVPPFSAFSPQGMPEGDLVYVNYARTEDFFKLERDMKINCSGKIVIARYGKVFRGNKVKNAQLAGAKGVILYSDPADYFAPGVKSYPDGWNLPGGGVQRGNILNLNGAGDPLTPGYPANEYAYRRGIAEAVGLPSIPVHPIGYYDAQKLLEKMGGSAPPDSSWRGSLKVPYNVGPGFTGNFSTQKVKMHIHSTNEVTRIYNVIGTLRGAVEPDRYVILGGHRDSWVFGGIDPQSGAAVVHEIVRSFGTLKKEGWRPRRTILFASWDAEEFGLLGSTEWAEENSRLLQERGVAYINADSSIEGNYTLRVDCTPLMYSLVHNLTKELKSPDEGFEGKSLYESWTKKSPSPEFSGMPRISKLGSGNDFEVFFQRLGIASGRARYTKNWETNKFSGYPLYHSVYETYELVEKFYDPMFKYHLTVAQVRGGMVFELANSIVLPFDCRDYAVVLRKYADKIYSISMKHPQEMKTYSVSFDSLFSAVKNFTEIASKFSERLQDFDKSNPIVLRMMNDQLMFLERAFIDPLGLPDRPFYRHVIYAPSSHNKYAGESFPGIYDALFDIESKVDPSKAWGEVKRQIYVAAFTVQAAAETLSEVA
Procedure: as §2
The competitive cell binding assay and internalization experiments were performed as described previously (4). Briefly, the cells (10^5 per well) were incubated with a 0.2 nM solution of ^68Ga-labeled radioligand [Glu-urea-Lys(Ahx)]2-HBED-CC (PSMA-10, precursor ordered from ABX, Radeberg, Germany) in the presence of 12 different concentrations of analyte (0-5000 nM, 100 μL/well). After incubation, the mixture was removed and the wells were washed 3 times with PBS using a multiscreen vacuum manifold (Millipore, Billerica, Mass.). Cell-bound radioactivity was measured using a gamma counter (Packard Cobra II, GMI, Minnesota, USA). The 50% inhibitory concentration (IC50) values were calculated by fitting the data using a nonlinear regression algorithm (GraphPad Software).

[3] = in vivo, Organ distribution Blood
[4] = in vivo, Organ distribution Brain
[5] = in vivo, Organ distribution Heart
[6] = in vivo, Organ distribution Intestine
[7] = in vivo, Organ distribution Kidney
[8] = in vivo, Organ distribution Liver
[9] = in vivo, Organ distribution Lung
[10] = in vivo, Organ distribution Muscle
[11] = in vivo, Organ distribution Spleen
[12] = listed as PSMA-HBED-CC-PEG2-IRDye8000CW

Question: Which “Tumor-to-Organ ratio T/Kidney” value ([1]; 68Ga labeled, 1 h p.i.) does the source give for `CC1(C)C(/C=C/C2=C(Oc3ccc(S(=O)(=O)O)cc3)C(=C\C=C3/N(CCCCS(=O)(=O)O)c4ccc(S(=O)(=O)O)cc4C3(C)C)/CCC2)=[N+](CCCCCC(=O)NCCOCCOCCNC(=O)CCc2ccc(O)c(CN(CCN(CC(=O)O)Cc3cc(CCC(=O)NCCCCC(NC(=O)NC(CCC(=O)O)C(=O)O)C(=O)O)ccc3O)CC(=O)O)c2)c2ccc(S(=O)(=O)O)cc21` (stereo not shown) [PSMA-HBED-CC-PEG2-IRDye800CW, Glu-urea-Lys-HBED-CC-PEG2-IRDye800CW, reference compound] here?
Answer: 0.07

Question: What about the “Tumor-to-Organ ratio T/Blood” value ([1]; mouse, in vivo) of the same molecule?
Answer: 4.49

Question: And the “Tumor-to-Organ ratio T/Brain” value ([1]; mouse, in vivo)?
Answer: 31.39

Question: And the “Tumor-to-Organ ratio T/Heart” value ([1]; mouse, in vivo)?
Answer: 4.92

Question: What about the “Tumor-to-Organ ratio T/Intestine” value ([1]; mouse, in vivo) of the same molecule?
Answer: 5.66

Question: And the “Tumor-to-Organ ratio T/Liver” value ([1]; mouse, in vivo)?
Answer: 4.94

Question: What about the “Tumor-to-Organ ratio T/Lung” value ([1]; mouse, in vivo) of the same molecule?
Answer: 2.44

Question: What about the “Tumor-to-Organ ratio T/Muscle” value ([1]; mouse, in vivo) of the same molecule?
Answer: 4.78

Question: What about the “Tumor-to-Organ ratio T/Spleen” value ([1]; mouse, in vivo) of the same molecule?
Answer: 0.36

Question: And the tissue uptake at 1 h [2, 3]?
Answer: 3.04 %ID/g

Question: And the tissue uptake at 2 h [2, 3]?
Answer: 0.76 %ID/g

Question: And the tissue uptake at 1 h [2, 4]?
Answer: 0.43 %ID/g

Question: What about the tissue uptake at 2 h [2, 4] of the same molecule?
Answer: 0.22 %ID/g

Question: What about the tissue uptake at 1 h [2, 5] of the same molecule?
Answer: 2.78 %ID/g

Question: And the tissue uptake at 2 h [2, 5]?
Answer: 1 %ID/g

Question: What about the tissue uptake at 1 h [2, 6] of the same molecule?
Answer: 2.41 %ID/g

Question: And the tissue uptake at 2 h [2, 6]?
Answer: 1.37 %ID/g

Question: And the tissue uptake at 1 h [2, 7]?
Answer: 205 %ID/g

Question: What about the tissue uptake at 2 h [2, 7] of the same molecule?
Answer: 120 %ID/g

Question: And the tissue uptake at 1 h [2, 8]?
Answer: 2.76 %ID/g

Question: What about the tissue uptake at 2 h [2, 8] of the same molecule?
Answer: 1.21 %ID/g

Question: What about the tissue uptake at 1 h [2, 9] of the same molecule?
Answer: 5.6 %ID/g

Question: What about the tissue uptake at 2 h [2, 9] of the same molecule?
Answer: 2.53 %ID/g

Question: What about the tissue uptake at 1 h [2, 10] of the same molecule?
Answer: 2.86 %ID/g

Question: And the tissue uptake at 2 h [2, 10]?
Answer: 1.96 %ID/g

Question: What about the tissue uptake at 1 h [2, 11] of the same molecule?
Answer: 38.1 %ID/g

Question: What about the tissue uptake at 2 h [2, 11] of the same molecule?
Answer: 13.7 %ID/g

Question: And the tissue uptake at 2 h ([2]; in vivo, Organ distribution Tumor)?
Answer: 7.94 %ID/g

Question: What about the tissue uptake at 1 h ([2]; in vivo, Organ distribution Tumor (tumor accumulation)) of the same molecule?
Answer: 13.7 %ID/g

Question: And the tissue to tissue ratio at 1 h ([2]; in vivo, Tumor-to-Organ ratio T/Blood)?
Answer: 4.49

Question: What about the tissue to tissue ratio at 1 h ([2]; in vivo, Tumor-to-Organ ratio T/Brain) of the same molecule?
Answer: 31.4

Question: And the tissue to tissue ratio at 1 h ([2]; in vivo, Tumor-to-Organ ratio T/Heart)?
Answer: 4.92

Question: What about the tissue to tissue ratio at 1 h ([2]; in vivo, Tumor-to-Organ ratio T/Intestine) of the same molecule?
Answer: 5.66

Question: What about the tissue to tissue ratio at 1 h ([2]; in vivo, Tumor-to-Organ ratio T/Liver) of the same molecule?
Answer: 4.94

Question: What about the tissue to tissue ratio at 1 h ([2]; in vivo, Tumor-to-Organ ratio T/Lung) of the same molecule?
Answer: 2.44

Question: And the tissue to tissue ratio at 1 h ([2]; in vivo, Tumor-to-Organ ratio T/Muscle)?
Answer: 4.78

Question: What about the tissue to tissue ratio at 1 h ([2]; in vivo, Tumor-to-Organ ratio T/Spleen) of the same molecule?
Answer: 0.36

Question: And the tissue to tissue ratio at 1 h ([2]; tumor and kidney, 68Ga labeled, 1 h p.i., read-out: Tumor-to-Organ ratio T/Kidney)?
Answer: 0.07

Question: And the “Specific cell surface bound” value (PSMA+ LNCaP cells)?
Answer: improved

Question: And the Specific internalized (PSMA+ LNCaP cells)?
Answer: improved

Question: And the “Specific cell surface bound” value (PSMA+ LNCaP cells; [12])?
Answer: 13.62 ± 4.79 % ID/10^5 cells

Question: And the Specific internalized (PSMA+ LNCaP cells; [12])?
Answer: 18.70 ± 7.03 % ID/10^5 cells

Question: And the Ki (PSMA)?
Answer: 17.5 ± 4.98 nM
